{"source": "paper PMC2898518", "binders": {"B1": {"name": "66-bp circular wild-type GADD45 (dsDNA)", "DNA 1": "AGCTGATATCGAATTCTCGAGCAGAACATGTCTAAGCATGCTGGGCTCGAGAATTCCTGCAGCGCT", "DNA 2": "AGCGCTGCAGGAATTCTCGAGCCCAGCATGCTTAGACATGTTCTGCTCGAGAATTCGATATCAGCT"}, "B2": {"name": "66-bp circular mutant GADD45 (dsDNA)", "DNA 1": "B1 DNA 1 with C27A, G30T, C37A, G40T", "DNA 2": "B1 DNA 2 with C27A, G30T, C37A, G40T"}, "B3": {"name": "p21 site 32-mer (dsDNA)", "DNA 1": "TAGAGCGAACATGTCCCAACATGTTGGCGTCG", "DNA 2": "CGACGCCAACATGTTGGGACATGTTCGCTCTA"}}, "key": {"p53 wild-type [1]": {"biological_target": "T1, p53 wild-type (UniProt P04637 1-393)", "T1 sequence (P04637 whole entry)": "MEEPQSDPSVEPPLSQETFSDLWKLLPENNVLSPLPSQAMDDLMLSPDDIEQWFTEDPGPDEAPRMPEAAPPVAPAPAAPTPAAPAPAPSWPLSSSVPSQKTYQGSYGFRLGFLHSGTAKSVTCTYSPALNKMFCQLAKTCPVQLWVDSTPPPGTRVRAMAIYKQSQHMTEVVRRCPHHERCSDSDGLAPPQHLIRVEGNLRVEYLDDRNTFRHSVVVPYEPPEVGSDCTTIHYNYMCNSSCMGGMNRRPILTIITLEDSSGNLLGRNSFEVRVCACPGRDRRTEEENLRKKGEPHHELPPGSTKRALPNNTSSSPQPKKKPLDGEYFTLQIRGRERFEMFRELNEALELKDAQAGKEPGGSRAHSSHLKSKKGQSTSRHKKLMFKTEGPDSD", "test": "EMSA"}, "p53 wild-type [2]": {"biological_target": "T1, p53 wild-type", "test": "filter binding"}}, "note": "Substitutions are numbered along the chain they refer to."}
{"binder": "B1", "values": [{"measurement": "binding signal", "setting": "p53 wild-type [1]", "value": "1 fold (reference)"}]}
{"binder": "B2", "values": [{"measurement": "binding signal", "setting": "p53 wild-type [1]", "value": "1 fold (reference)"}]}
{"binder": "B3", "values": [{"measurement": "binding signal", "setting": "p53 wild-type [2]", "value": "1 fold (reference)"}]}
